The target in experiment [1] is T1, human melanocortin-4 receptor (human, UniProt P32245 1-332).
T1 construct: whole, on cells; Membrane preparations of stably expressing cells; also called hMC4R; MC4R
Briefly: displacement of 0.2 nM 125I-NDP-α-MSH from membranes of cells stably expressing human MC4R, filtration.

Experiment [2] concerns the target anti-Myc mAb-HRP conjugate (Invitrogen). Briefly: competition ELISA: anti-Myc mAb-HRP on coated Myc peptide, 10x diluted c-ART-b sample as competitor.
Experiment [3] concerns the target T2, human melanocortin-3 receptor (human, UniProt P41968 1-323).
T2 construct: whole, on cells; Membrane preparations of stably expressing cells; also called hMC3R; MC3R
Briefly: displacement of 0.2 nM 125I-NDP-α-MSH from membranes of cells stably expressing human MC3R, filtration.

T2 sequence (P41968 whole entry): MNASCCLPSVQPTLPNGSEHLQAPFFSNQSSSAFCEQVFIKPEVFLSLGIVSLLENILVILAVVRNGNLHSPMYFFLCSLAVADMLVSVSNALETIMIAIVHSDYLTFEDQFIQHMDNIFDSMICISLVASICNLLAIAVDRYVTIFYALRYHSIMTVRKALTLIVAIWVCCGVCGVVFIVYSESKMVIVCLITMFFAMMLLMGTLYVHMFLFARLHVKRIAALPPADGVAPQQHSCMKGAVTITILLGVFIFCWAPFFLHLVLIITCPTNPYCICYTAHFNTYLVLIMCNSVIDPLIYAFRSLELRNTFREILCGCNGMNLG
T1 sequence (P32245 whole entry): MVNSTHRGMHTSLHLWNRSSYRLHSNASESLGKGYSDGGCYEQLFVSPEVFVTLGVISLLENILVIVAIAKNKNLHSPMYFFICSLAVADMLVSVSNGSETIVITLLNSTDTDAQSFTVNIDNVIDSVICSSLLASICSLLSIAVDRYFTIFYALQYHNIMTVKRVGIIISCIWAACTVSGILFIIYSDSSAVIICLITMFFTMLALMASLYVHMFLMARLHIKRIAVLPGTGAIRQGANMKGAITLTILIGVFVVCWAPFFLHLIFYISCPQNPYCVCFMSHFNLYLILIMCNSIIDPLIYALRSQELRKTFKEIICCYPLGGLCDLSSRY

By IC50 is commonly meant the point on the concentration scale where inhibition reaches its midpoint. Lower therefore signals greater potency. Regarding “c-ART-b (from UniProt O00253 1-26; O00253 76-132) (ligand)”, the 50% inhibitory concentration (IC50) in experiment [1] was determined as 1.4 nM; in experiment [3] it was 1.9 nM. For the same molecule, the absorbance in experiment [2] amounted to 0.079.

B1: full-length human ART protein (ligand, UniProt O00253 21-132, looked up, not shown: small tags and cut ends)
chain: AQMGLAPMEGIRRPDQALLPELPGLGLRAPLKKTTAEQAEEDLLQEAQALAEVLDLQDREPRSSRRCVRLHESCLGQQVPCCDPCATCYCRFFNAFCYCRKLGTAMNPCSRT
notes: range 1-132; Recombinant ART as described by Fong et al. 1997 (ART cDNA in pcDNA3.1-Myc-His-A); also called full length ART; full-length ART protein
In the case of B1, the IC50 stood at 0.5 nM in experiment [1] and 1 nM in experiment [3].

For the origin of these results see patent publication EP1040351B1 (Merck & Co., Inc., dated 2007).
